Experimental data from patent US20220049021A1.
Substitutions are numbered along the chain they refer to. Names and notes keep the numbering of the source.

T1: human FLT3 on AML5 cells (human) (UniProt P36888)
T1 sequence (looked up): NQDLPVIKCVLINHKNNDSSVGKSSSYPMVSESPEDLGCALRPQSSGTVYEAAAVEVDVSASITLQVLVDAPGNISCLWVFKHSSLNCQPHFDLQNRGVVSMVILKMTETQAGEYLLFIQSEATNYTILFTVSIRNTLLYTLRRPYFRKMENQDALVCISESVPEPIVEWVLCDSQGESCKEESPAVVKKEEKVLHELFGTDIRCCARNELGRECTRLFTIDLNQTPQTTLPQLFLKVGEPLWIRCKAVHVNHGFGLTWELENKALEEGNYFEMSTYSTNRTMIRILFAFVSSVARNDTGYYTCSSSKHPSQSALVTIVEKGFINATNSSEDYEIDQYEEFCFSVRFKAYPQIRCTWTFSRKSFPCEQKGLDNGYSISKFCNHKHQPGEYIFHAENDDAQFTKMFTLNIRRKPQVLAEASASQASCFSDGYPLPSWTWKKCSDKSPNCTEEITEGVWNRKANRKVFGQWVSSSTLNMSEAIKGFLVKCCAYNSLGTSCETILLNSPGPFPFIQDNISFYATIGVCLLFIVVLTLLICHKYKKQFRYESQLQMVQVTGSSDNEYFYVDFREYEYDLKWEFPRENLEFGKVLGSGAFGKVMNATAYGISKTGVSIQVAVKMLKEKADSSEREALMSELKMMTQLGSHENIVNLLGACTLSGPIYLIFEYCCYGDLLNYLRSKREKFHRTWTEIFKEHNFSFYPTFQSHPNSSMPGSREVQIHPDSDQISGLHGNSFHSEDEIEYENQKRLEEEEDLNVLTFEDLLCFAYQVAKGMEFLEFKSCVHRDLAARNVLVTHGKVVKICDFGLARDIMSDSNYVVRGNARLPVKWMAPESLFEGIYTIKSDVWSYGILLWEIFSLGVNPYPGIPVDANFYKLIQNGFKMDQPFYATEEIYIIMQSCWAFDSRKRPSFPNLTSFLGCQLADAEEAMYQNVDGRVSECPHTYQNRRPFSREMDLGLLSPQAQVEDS

T2: mouse FLT3 on M1 cells (mouse) (UniProt Q00342)
T2 sequence (looked up): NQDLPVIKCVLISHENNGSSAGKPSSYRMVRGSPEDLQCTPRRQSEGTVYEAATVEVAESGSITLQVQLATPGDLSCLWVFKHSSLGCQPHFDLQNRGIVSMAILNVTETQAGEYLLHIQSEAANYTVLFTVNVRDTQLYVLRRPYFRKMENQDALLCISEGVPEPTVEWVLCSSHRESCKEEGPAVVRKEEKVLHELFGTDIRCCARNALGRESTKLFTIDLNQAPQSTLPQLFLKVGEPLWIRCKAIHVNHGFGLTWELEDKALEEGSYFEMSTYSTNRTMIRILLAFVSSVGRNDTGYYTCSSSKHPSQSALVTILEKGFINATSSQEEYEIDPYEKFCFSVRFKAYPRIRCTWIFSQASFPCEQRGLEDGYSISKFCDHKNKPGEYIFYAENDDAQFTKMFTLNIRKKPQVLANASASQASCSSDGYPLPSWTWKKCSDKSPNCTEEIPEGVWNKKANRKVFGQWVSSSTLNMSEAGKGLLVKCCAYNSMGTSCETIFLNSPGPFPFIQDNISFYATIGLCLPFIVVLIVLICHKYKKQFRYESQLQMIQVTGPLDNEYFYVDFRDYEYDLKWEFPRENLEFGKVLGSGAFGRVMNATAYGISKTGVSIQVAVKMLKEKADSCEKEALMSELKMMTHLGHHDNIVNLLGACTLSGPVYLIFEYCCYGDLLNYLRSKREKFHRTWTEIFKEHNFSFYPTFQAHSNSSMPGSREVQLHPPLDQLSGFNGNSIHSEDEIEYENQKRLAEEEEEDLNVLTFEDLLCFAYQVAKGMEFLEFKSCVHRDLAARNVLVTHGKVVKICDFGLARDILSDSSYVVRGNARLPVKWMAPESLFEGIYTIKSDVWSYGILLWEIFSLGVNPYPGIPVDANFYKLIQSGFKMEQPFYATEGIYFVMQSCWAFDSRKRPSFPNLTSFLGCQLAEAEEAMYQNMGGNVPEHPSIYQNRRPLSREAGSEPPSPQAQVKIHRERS

B1: mouse FLT3-ligand mouse IgG2a (LALA-PG) fusion protein (SEQ ID NO:19) (Fc fusion)
chain: TPDCYFSHSPISSNFKVKFRELTDHLLKDYPVTVAVNLQDEKHCKALWSLFLAQRWIEQLKTVAGSKMQTLLEDVNTEIHFVTSCTFQPLPECLRFVQTNISHLLKDTCTQLLALKPCIGKACQNFSRCLEVQCQPDSSTLLPPRSPIALEATELPEPRGPTIKPCPPCKCPAPNAAGGPSVFIFPPKIKDVLMISLSPIVTCVVVDVSEDDPDVQISWFVNNVEVHTAQTQTHREDYNSTLRVVSALPIQHQDWMSGKEFKCKVNNKDLGAPIERTISKPKGSVRAPQVYVLPPPEEEMTKKQVTLTCMVTDFMPEDIYVEWTNNGKTELNYKNTEPVLDSDGSYFMYSKLRVEKKNWVERNSYSCSVVHEGLHNHHTTKSFSRTPGK
B2: mouse FLT3-ligand mouse IgG2a (C136S LALA-PG) fusion protein (SEQ ID NO:20) (Fc fusion)
chain: B1 chain with C109S
B3: recombinant human FLT3-ligand human IgG1 fusion protein (Fc fusion, UniProt P49771 27-185, looked up, not shown: a dimerising Fc or GST)
chain: TQDCSFQHSPISSDFAVKIRELSDYLLQDYPVTVASNLQDEELCGGLWRLVLAQRWMERLKTVAGSKMQGLLERVNTEIHFVTKCAFQPPPSCLRFVQTNISRLLQETSEQLVALKPWITRQNFSRCLELQCQPDSSTLPPPWSPRPLEATAPTAPQPP
B4: recombinant human FLT3-ligand (ligand, UniProt P49771 27-185, looked up)
chain: B3 chain

Legend:
[1] = biological target: T1, human FLT3 on AML5 cells (human); assay: cell-based or functional assay
[2] = biological target: T2, mouse FLT3 on M1 cells (mouse); assay: cell-based or functional assay

Row | Binder | EC50 (nM), Inducing Proliferation of AML5 Cells [1] [nM] | EC50(nM), M1 IL-6 release assay [2] [nM] | Emax(pg/ml), M1 IL-6 release assay [2] [pg/mL]
1 | B1 | 0.171 | – | –
2 | B2 | 0.115 | – | –
3 | B3 | – | 0.117 | 517
4 | B4 | 0.039 | 0.024 | 392
